Laboratory results taken from US20200040101A1 (ASKGENE PHARMA, published 2020).
Changes are numbered by the printed parent chain.

T1: Claudin-10
T1 construct: expressed on transiently transfected HEK 293 cells; the sheet prints only the number after Claudin-1
T1 sequence (P78369 1-228, species assumed, looked up): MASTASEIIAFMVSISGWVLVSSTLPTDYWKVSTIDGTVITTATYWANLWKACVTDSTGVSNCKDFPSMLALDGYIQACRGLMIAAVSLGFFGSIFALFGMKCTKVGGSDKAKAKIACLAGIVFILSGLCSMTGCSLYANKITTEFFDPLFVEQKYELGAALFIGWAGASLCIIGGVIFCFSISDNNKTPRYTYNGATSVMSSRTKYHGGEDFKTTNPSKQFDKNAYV

T2: Claudin-2
T2 construct: expressed on transiently transfected HEK 293 cells; the sheet prints only the number after Claudin-1
T2 sequence (P57739 whole entry, species assumed, looked up): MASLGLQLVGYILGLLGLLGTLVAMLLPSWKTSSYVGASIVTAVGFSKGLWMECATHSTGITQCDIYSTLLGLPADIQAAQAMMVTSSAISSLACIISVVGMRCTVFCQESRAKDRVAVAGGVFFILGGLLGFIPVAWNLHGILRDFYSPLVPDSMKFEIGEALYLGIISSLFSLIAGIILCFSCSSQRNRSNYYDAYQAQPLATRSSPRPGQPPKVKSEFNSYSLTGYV

T3: Claudin-11
T3 construct: expressed on transiently transfected HEK 293 cells; the sheet prints only the number after Claudin-1
T3 sequence (O75508 whole entry, species assumed, looked up): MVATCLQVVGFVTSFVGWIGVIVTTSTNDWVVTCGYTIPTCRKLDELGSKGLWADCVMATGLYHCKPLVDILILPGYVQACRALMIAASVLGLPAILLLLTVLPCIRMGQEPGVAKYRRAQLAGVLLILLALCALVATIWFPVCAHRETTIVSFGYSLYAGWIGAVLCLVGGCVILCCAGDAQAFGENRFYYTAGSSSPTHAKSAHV

T4: Claudin-16
T4 construct: expressed on transiently transfected HEK 293 cells; the sheet prints only the number after Claudin-1
T4 sequence (Q9Y5I7 1-235, species assumed, looked up): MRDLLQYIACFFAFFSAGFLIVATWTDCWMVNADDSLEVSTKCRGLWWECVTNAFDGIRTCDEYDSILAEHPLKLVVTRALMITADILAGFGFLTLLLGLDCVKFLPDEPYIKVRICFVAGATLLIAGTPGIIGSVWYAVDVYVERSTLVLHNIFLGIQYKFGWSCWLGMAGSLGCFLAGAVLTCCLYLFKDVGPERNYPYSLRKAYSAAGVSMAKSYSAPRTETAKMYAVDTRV

T5: Claudin-17
T5 construct: expressed on transiently transfected HEK 293 cells; the sheet prints only the number after Claudin-1
T5 sequence (P56750 whole entry, species assumed, looked up): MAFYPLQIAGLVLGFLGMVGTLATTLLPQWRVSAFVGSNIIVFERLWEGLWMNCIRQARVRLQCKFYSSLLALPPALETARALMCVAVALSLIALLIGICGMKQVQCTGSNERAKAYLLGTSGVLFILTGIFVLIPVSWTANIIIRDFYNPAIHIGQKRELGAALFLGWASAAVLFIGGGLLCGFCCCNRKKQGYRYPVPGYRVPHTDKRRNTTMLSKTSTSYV

T6: Claudin-19
T6 construct: expressed on transiently transfected HEK 293 cells; the sheet prints only the number after Claudin-1
T6 sequence (Q8N6F1 whole entry, species assumed, looked up): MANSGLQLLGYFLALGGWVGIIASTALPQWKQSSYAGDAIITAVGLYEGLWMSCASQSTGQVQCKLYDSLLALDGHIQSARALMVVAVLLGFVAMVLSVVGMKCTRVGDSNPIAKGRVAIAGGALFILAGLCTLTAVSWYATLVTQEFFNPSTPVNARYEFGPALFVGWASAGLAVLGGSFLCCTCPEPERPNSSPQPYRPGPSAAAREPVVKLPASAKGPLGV

T7: Claudin-5
T7 construct: expressed on transiently transfected HEK 293 cells; the sheet prints only the number after Claudin-1
T7 sequence (O00501 whole entry, species assumed, looked up): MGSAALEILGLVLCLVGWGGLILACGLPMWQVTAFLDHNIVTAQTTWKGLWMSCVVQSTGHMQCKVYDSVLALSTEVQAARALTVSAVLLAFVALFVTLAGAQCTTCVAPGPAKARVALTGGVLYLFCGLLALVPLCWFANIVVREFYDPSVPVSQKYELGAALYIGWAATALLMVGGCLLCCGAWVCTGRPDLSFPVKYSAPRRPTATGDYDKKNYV

T8: CLDN 7 expressed on HEK 293 cells (UniProt O95471 1-211, limits assumed)
T8 construct: whole, on cells
T8 sequence (looked up): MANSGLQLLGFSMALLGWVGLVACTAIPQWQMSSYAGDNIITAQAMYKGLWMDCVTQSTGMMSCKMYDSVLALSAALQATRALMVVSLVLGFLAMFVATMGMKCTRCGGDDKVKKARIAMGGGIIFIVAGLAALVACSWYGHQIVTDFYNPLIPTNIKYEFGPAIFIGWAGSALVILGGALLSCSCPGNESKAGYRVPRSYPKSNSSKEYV

T9: Claudin-23
T9 construct: expressed on transiently transfected HEK 293 cells; the sheet prints only the number after Claudin-1
T9 sequence (Q96B33 1-292, species assumed, looked up): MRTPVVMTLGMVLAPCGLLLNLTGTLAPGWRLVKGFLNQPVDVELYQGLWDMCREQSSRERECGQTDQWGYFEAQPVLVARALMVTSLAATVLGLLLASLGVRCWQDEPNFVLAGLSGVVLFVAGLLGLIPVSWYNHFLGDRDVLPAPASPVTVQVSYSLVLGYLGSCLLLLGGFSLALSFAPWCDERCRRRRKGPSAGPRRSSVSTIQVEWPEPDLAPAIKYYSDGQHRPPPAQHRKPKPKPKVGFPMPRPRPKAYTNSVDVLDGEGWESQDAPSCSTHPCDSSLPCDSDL

B1: ASK589-B (antibody, human IgG1, kappa, V domains shown)
VH: EVQLVESGGGLVKPGGSLRLSCAVSGFYFNRGYWICWVRQAPGKGLEWIGCIDTGSGVPYYANWAKGRFTISRHTSKTTLTLQMNSLRAEDTASYFCARNSDSIYFNIWGPGTLVTVSS
VL: DIVMTQSPSSLSASVGDRVTITCQASQSIGGYISWYQQKPGKAPKLLIYKASTLASGVPSRFSGSGSGTDFTLTISSLQPEDFATYYCQNYAGVSIYGAVFGGGTKVVIKR
notes: Humanized rabbit antibody (from Clone 46; HC5M1 with LC1M1); also called Molecule B
B2: 30B5 (mouse hybridoma subclone antibody) (antibody, V domains shown)
VH: EVKLEESGGGLVQPGGSMKLSCVASGFTFSNYWMNWVRQSPEKGLEWVAEIRLKSKNYATHYAESVKGRFTISRDDSIGSVYLQMNNLRAEDTGIYYCARGHYGTNYGDYWGQGTSVTVSS
VL: DIVMTQSPSSLTVTAGEKVTVSCKSSQSLFNSGNQKHYLTWYQQKPGQPPKLLIYRASTRESGVPDRFTGSGSGTDFTLTIRNVQAEDLAVYYCQNDYSFPLTFGAGTKLELK
notes: also remade as chimeric antibody with human IgG1 and kappa
B3: 85H12 (mouse hybridoma subclone antibody) (antibody, V domains shown)
VH: B2 VH
VL: B2 VL
notes: as for B2
B4: 79C4 (mouse hybridoma subclone antibody) (antibody, V domains shown)
VH: B2 VH
VL: DIQTTQSPSSLSASLGERVTLTCRASQEISGYLSWLQQKPDGTIKRLIYAASTLDSGVPKRFSGSRSGSDYSLTINSLESEDFVDYYCLQYDSSPWTFGGGTKLEIK
notes: also remade as chimeric antibody with human IgG1 and kappa (pFUSE vectors)
B5: 83G3 (mouse hybridoma subclone antibody) (antibody, V domains shown)
VH: QVQLQQSGAELAKPGASVKLSCKASGFTFTSYWIHWVKQRPGQGLEWIGYIDPSNTYTKFNQKFKDKATLTADKSSSTAYMQLNSLTFEDSAVYYCATGRGFAYWGQGTLVTVSS
VL: B2 VL
notes: as for B2
B6: M5 (mutated version of M1) (antibody, V domains shown)
VH: QVQLVQSGAEVKKPGASVKVSCKASGYTFTSYVINWVRQATGQGLEWIGEIHPRGGNTYYSEKFRGRVTLTADTSISTAYMELSSLRSEDTAVYYCARLRRGNAMDYWDQGTTVTVSS
VL: DIVMTQSPSSLAVSLGEMATINCKSSQSLLNSGNQRNYLTWYQQKPGQPPKLLIYWASTRESGVPDRFSGSGSGTDFTLTISSLQAEDVAVYYCQNSYNYPYTFGQGTKLERK
notes: Humanized mouse antibody from 11E12 (hu11E12VHv1B with hu11E12VLv1); also called ASK-M5_DS; Molecule M5
B7: ASK589-M1 (antibody, V domains shown)
VH: B6 VH with R98I
VL: B6 VL
notes: Humanized mouse antibody from 11E12 (hu11E12VHv1 with hu11E12VLv1); also called Molecule M1; M1_DS

Legend:
[1] = target: T10, human Claudin 18.2 (CLDN18.2) expressed on cells (human, UniProt P56856-2 1-261); experiment: FACS, transfected HEK 293 cells, first 18.2 column
T10 construct: whole, on cells; also called CLD18.2; CLD18A2

Claudin-10 = target: T1, Claudin-10; experiment: FACS, transfected HEK 293 cells
Claudin-12 = target: T11, Claudin-12; experiment: FACS, transfected HEK 293 cells
T11 construct: expressed on transiently transfected HEK 293 cells; the sheet prints only the number after Claudin-1

Claudin-2 = target: T2, Claudin-2; experiment: FACS, transfected HEK 293 cells
Claudin-11 = target: T3, Claudin-11; experiment: FACS, transfected HEK 293 cells
Claudin-16 = target: T4, Claudin-16; experiment: FACS, transfected HEK 293 cells
Claudin-17 = target: T5, Claudin-17; experiment: FACS, transfected HEK 293 cells
Claudin-9 = target: T12, Claudin-9; experiment: FACS, transfected HEK 293 cells
T12 construct: expressed on transiently transfected HEK 293 cells; the sheet prints only the number after Claudin-1

Claudin-19 = target: T6, Claudin-19; experiment: FACS, transfected HEK 293 cells
Claudin-5 = target: T7, Claudin-5; experiment: FACS, transfected HEK 293 cells
Claudin-8 = target: T13, Claudin-8; experiment: FACS, transfected HEK 293 cells
T13 construct: expressed on transiently transfected HEK 293 cells; the sheet prints only the number after Claudin-1

Claudin-1 = target: T14, Claudin-1; experiment: FACS, transfected HEK 293 cells
T14 construct: expressed on transiently transfected HEK 293 cells

Claudin-3 = target: T15, Claudin-3; experiment: FACS, transfected HEK 293 cells
T15 construct: expressed on transiently transfected HEK 293 cells; the sheet prints only the number after Claudin-1

Claudin-22 = target: T16, Claudin-22; experiment: FACS, transfected HEK 293 cells
T16 construct: expressed on transiently transfected HEK 293 cells; the sheet prints only the number after Claudin-1

Claudin-14 = target: T17, Claudin-14; experiment: FACS, transfected HEK 293 cells
T17 construct: expressed on transiently transfected HEK 293 cells; the sheet prints only the number after Claudin-1

[2] = target: T8, CLDN 7 expressed on HEK 293 cells; experiment: FACS, transfected HEK 293 cells
Claudin-4 = target: T18, Claudin-4; experiment: FACS, transfected HEK 293 cells
T18 construct: expressed on transiently transfected HEK 293 cells; the sheet prints only the number after Claudin-1

Claudin-23 = target: T9, Claudin-23; experiment: FACS, transfected HEK 293 cells
Claudin-34 = target: T19, Claudin-34; experiment: FACS, transfected HEK 293 cells
T19 construct: expressed on transiently transfected HEK 293 cells; the sheet prints only the number after Claudin-1

[3] = target: T10, human Claudin 18.2 (CLDN18.2) expressed …; experiment: FACS, HEK 293 cells expressing CLDN18.2
[4] = target: T10, human Claudin 18.2 (CLDN18.2) expressed …; experiment: FACS, transfected HEK 293 cells, second 18.2 column
[5] = target: T10, human Claudin 18.2 (CLDN18.2) expressed …; experiment: FACS, hybridoma supernatant of the first fusion, AF 647 anti-IgG
[6] = target: T10, human Claudin 18.2 (CLDN18.2) expressed …; experiment: FACS, hybridoma subclone supernatant, CLDN18.2 and CLDN18.1 cells in one plot

| Binder | MFI [1] | MFI (Claudin-10) | MFI (Claudin-12) | MFI (Claudin-2) | MFI (Claudin-11) | MFI (Claudin-16) | MFI (Claudin-17) | MFI (Claudin-9) | MFI (Claudin-19) | MFI (Claudin-5) | MFI (Claudin-8) | MFI (Claudin-1) | MFI (Claudin-3) | MFI (Claudin-22) | MFI (Claudin-14) | MFI [2] | MFI (Claudin-4) | MFI (Claudin-23) | MFI (Claudin-34) | MFI [4] | also measured |
| --- | --- | --- | --- | --- | --- | --- | --- | --- | --- | --- | --- | --- | --- | --- | --- | --- | --- | --- | --- | --- | --- |
| B1 | 3870 | 23 | 20.7 | 21.3 | 20.9 | 24.5 | 21.8 | 21.8 | 21 | 20.3 | 21.4 | 22.8 | 23.8 | 29.1 | 21.7 | 22.6 | 22 | 22 | 22.3 | 4050 | binding result [2]: no binding; EC50 (read off the curve) [3]: ~0.3 µg/mL |
| B2 |  |  |  |  |  |  |  |  |  |  |  |  |  |  |  |  |  |  |  |  | binding result [5]: binds |
| B3 |  |  |  |  |  |  |  |  |  |  |  |  |  |  |  |  |  |  |  |  | binding result [6]: binds |
| B4 |  |  |  |  |  |  |  |  |  |  |  |  |  |  |  |  |  |  |  |  | binding result [6]: binds |
| B5 |  |  |  |  |  |  |  |  |  |  |  |  |  |  |  |  |  |  |  |  | binding result [6]: binds |
| B6 | 3610 | 22.3 | 21.6 | 22 | 20.3 | 21.8 | 21.9 | 21.7 | 21.3 | 21.2 | 20.8 | 23.6 | 23.3 | 22.2 | 22.4 | 23.4 | 21.8 | 21.7 | 24.1 | 2810 | EC50 (read off the curve) [3]: ~0.3 µg/mL |
| B7 | 4820 | 23.2 | 21.9 | 22.3 | 19.4 | 21 | 21.7 | 20.5 | 20.5 | 20 | 20.4 | 23.4 | 21.4 | 21.1 | 20.1 | 21.5 | 20.7 | 19.3 | 20.7 | 4650 |  |
